Measured values taken from patent US20260116991A1 (HAINAN SIMCERE ZAIMING PHARMACEUTICAL, published 2026).

How the values were obtained:
[1] = biological target: T1, human GPC3 on CHO-K1-human GPC3 cells (CHOK1-hGPC3.2B5) (human, UniProt P51654 25-554); assay: FACS, CHOK1-hGPC3.2B5 cells;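 further: flow cytometry of humanized antibodies binding to the cells over one hour in the cold, read as cell mean fluorescence intensity, with EC50 obtained by curve fitting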
T1 construct: whole, on cells
Experimental: The desired cells were expanded to a logarithmic growth phase in a T-75 cell culture flask, the medium was removed by pipetting, and the cells were washed twice with a PBS buffer, and digested with trypsin. Then a complete medium was added to stop the digestion, and the cells were blown into a single cell suspension. After counting, the cells were centrifuged, and the cell pellet was resuspended with an FACS buffer (PBS+2% fetal bovine serum) to 2×10⁶ cells/mL. The cell resuspension solution was added to a 96-well FACS reaction plate at 50 μl/well, and a humanized antibody sample to be tested was added at 50 μl/well for incubation at 4° C. for 1 h. […] After the plate was centrifuged and washed 3 times with a PBS buffer, 100 μl of the resulting solution was assayed and analyzed by FACS (FACS Canto™, purchased from BD Biosciences). Data analysis was performed by software (FlowJo) to obtain the mean fluorescence intensity (MFI) of the cells. Then, analysis was performed by software (GraphPad Prism8), data were fitted, and EC₅₀ values were calculated.

[2] = biological target: biotinylated labeled human GPC3 protein (produced in-house) (human, UniProt P51654 25-559, limits assumed, biotinylated (Dojindo, Cat. No. LK03); sites not stated); assay: ELISA, biotinylated human GPC3 protein

B1: hAb007LH1L1e (antibody, human IgG1, V domains shown)
VH: EVQLVQSGAEVKKPGSSVKVSCKASGYTFSDYEMHWVRQAPGQGLEWMGTIDPETGNTAYNQKFKGRVTITADKSTSTAYMELSSLRSEDTAVYYCTRPYSLTYWGQGTLVTVSS
VL: DIVMTQTPLSLPVTPGEPASISCRSSQSFVHSNVDTYLQWYLQKPGQSPQLLIYKVSNRFSGVPDRFSGSGSGTDFTLKISRVEAEDVGVYYCFQGSHVPYTFGQGTKLEIK
notes: Humanized F3.81.19; VH H1 + VL L1e; expressed as human IgG1
EC50 [1]: 10.4 nM
Max MFI [1]: 15000 MFI
OD450 at 0.0004 nM [2]: 0.049 OD450
OD450 at 0.002 nM [2]: 0.05 OD450
OD450 at 0.011 nM [2]: 0.058 OD450
OD450 at 0.056 nM [2]: 0.104 OD450
OD450 at 0.28 nM [2]: 0.248 OD450
OD450 at 1.39 nM [2]: 0.732 OD450
OD450 at 6.94 nM [2]: 1.17 OD450
OD450 at 34.72 nM [2]: 0.921 OD450

B2: hAb007LH2L1b (antibody, human IgG1, V domains shown)
VH: EVQLVQSGAEVKKPGSSVKVSCKASGYTFTDYEMHWVRQAPGQGLEWMGTIDPETGNTAYNQKFKGRVTITADKSTSTAYMELSSLRSEDTAVYYCTRPYSLTYWGQGTLVTVSS
VL: DIVMTQTPLSLPVTPGEPASISCRSSQSFVHSNRDTYLQWYLQKPGQSPQLLIYKVSNRFSGVPDRFSGSGSGTDFTLKISRVEAEDVGVYYCFQGSHVPYTFGQGTKLEIK
notes: Humanized F3.81.19; VH H2 + VL L1b; expressed as human IgG1
EC50 [1]: 6.16 nM
Max MFI [1]: 6040 MFI
OD450 at 0.0008 nM [2]: 0.099 OD450
OD450 at 0.004 nM [2]: 0.133 OD450
OD450 at 0.02 nM [2]: 0.297 OD450
OD450 at 0.11 nM [2]: 0.924 OD450
OD450 at 0.53 nM [2]: 1.84 OD450
OD450 at 2.67 nM [2]: 2.2 OD450
OD450 at 13.33 nM [2]: 2.33 OD450
OD450 at 66.66 nM [2]: 2.25 OD450

B3: hAb007LH3L1b (antibody, human IgG1, V domains shown)
VH: EVQLVQSGAEVKKPGSSVKVSCKASGYTFTDYEMHWVRQAPGQGLEWMGTIDPETGNTAYNQKFKGRVTLTADKSTSTAYMELSSLRSEDTAVYYCTRPYSLTYWGQGTLVTVSS
VL: DIVMTQTPLSLPVTPGEPASISCRSSQSFVHSNRDTYLQWYLQKPGQSPQLLIYKVSNRFSGVPDRFSGSGSGTDFTLKISRVEAEDVGVYYCFQGSHVPYTFGQGTKLEIK
notes: Humanized F3.81.19; VH H3 + VL L1b; expressed as human IgG1
EC50 [1]: 7.33 nM
Max MFI [1]: 6240 MFI
OD450 at 0.0008 nM [2]: 0.088 OD450
OD450 at 0.004 nM [2]: 0.112 OD450
OD450 at 0.02 nM [2]: 0.225 OD450
OD450 at 0.11 nM [2]: 0.784 OD450
OD450 at 0.53 nM [2]: 1.8 OD450
OD450 at 2.67 nM [2]: 2.21 OD450
OD450 at 13.33 nM [2]: 2.25 OD450
OD450 at 66.66 nM [2]: 2.29 OD450

B4: hAb007LH3L1 (antibody, human IgG1, V domains shown)
VH: EVQLVQSGAEVKKPGSSVKVSCKASGYTFTDYEMHWVRQAPGQGLEWMGTIDPETGNTAYNQKFKGRVTLTADKSTSTAYMELSSLRSEDTAVYYCTRPYSLTYWGQGTLVTVSS
VL: DIVMTQTPLSLPVTPGEPASISCRSSQSFVHSNGDTYLQWYLQKPGQSPQLLIYKVSNRFSGVPDRFSGSGSGTDFTLKISRVEAEDVGVYYCFQGSHVPYTFGQGTKLEIK
notes: Humanized F3.81.19; VH H3 + VL L1; expressed as human IgG1
EC50 [1]: 6.98 nM
Max MFI [1]: 6760 MFI
OD450 at 0.0008 nM [2]: 0.097 OD450
OD450 at 0.004 nM [2]: 0.133 OD450
OD450 at 0.02 nM [2]: 0.323 OD450
OD450 at 0.11 nM [2]: 0.959 OD450
OD450 at 0.53 nM [2]: 1.78 OD450
OD450 at 2.67 nM [2]: 2.11 OD450
OD450 at 13.33 nM [2]: 2.16 OD450
OD450 at 66.66 nM [2]: 2.19 OD450
